We go through seven molecules from patent US20260078398A1, “PLANTS GENETICALLY ENGINEERED FOR INCREASED WATER USE EFFICIENCY AND CARBON INTAKE AND METHODS FOR MAKING AND USING THEM” (The Regents of the University of California, priority 2022, published 2026).

The target in series [1] is T1, His-HT1 (recombinant Arabidopsis HT1 protein kinase, wild type, with His tag).
T1 chain: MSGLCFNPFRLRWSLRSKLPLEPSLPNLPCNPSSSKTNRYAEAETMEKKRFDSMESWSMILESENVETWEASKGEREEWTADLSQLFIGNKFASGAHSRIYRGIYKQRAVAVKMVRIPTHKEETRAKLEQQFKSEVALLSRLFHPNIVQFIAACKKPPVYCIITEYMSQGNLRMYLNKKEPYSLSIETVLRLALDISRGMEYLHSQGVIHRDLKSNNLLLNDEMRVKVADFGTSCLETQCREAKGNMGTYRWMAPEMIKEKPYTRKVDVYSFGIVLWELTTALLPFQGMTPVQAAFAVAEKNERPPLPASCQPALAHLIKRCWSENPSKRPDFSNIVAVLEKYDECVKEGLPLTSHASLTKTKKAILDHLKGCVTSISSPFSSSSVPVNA

Series [2] relates to MPK4/12, HT1 and CBC1 recombinant proteins. Description: in vitro phosphorylation assay: NaHCO3-dependent down-regulation of HT1-mediated CBC1 phosphorylation. It counts as biochemical, Arabidopsis. The note with it: isoform replaces wild type protein or is added; 20 mM NaHCO3 vs NaCl control, 30 min. Here is the method:
We tested whether this HT1-mediated activation of CBC1 is inhibited by CO2/bicarbonate by adding NaHCO3 in in vitro phosphorylation reactions. […]
FIG. 2. […] Histone was used as an artificial protein kinase substrate. • (B) MPK4, HT1 and CBC1 proteins were incubated with NaHCO3 at the indicated concentrations for 30 min, and in vitro phosphorylation assays were performed. • (C) CBC1 band intensities as shown in (B) were measured using IMAGEJ™, n=4 experiments, error bars show ±S.D. • (D) MPK4, HT1 and CBC1 proteins were incubated in reaction buffers adjusted at different pH (6.5 to 8.5) for 30 min, and in vitro phosphorylation assays were performed. • (E) CBC1 band intensities and the density-ratios of ‘+NaHCO3’ to ‘—NaHCO3’ (=+NaCl controls) for each pH condition
FIG. 3. […] Ambient CO2 concentrations are indicated by the top bars. n=7 experiments, error bars show ±SEM. • (C) Recombinant HT1 (wild type, HT1-G89R or HT1-R173Q) and CBC1 proteins were incubated with MPK4 in the presence or absence of 20 mM NaHCO3 or 20 mM NaCl (−controls) for 30 min, and in vitro phosphorylation assays were performed. • (D) Recombinant MPK12, CBC1 and HT1 (WT or R102K) proteins were incubated with or without 20 mM NaHCO3 or 20 mM NaCl (−controls) for 30 min, and in vitro phosphorylation assays were performed. Histone was used as an artificial kinase substrate. • (E) HT1 (WT or A109V) proteins were used for in vitro phosphorylation assays. Proteins were incubated with or without 20 mM NaHCO3 or 20 mM NaCl (−controls) for 30 min. • (F) Stomatal conductances were analyzed using intact plants of Arabidopsis (Col-0 (WT), cbc1 cbc2, ht1-A109V and cbc1 cbc2 ht1-A109V). CO2 concentration changes were applied as indicated on top (p.p.m.). […]

The subject of another series is CBC1. As to the kind of experiment: HT1-dependent CBC1 kinase activation, in vitro phosphorylation and in-gel kinase assays. As to conditions: kinase inactive isoforms, histone as substrate. It counts as biochemical, Arabidopsis. The text has this: A previous study reported that the HT1 kinase phosphorylates the CBC1 kinase in vitro (13). Whether this phosphorylation of CBC1 affects CBC1 activity remains unknown. We confirmed CBC1 phosphorylation by HT1 using recombinant His-HT1 and GST-CBC1 proteins by in vitro phosphorylation assays using radioactive ^32P-ATP (FIG. 5). Moreover, phosphorylation levels of histone, an artificial kinase substrate, were increased at the same time. […] In-gel kinase assays were pursued to test this hypothesis and provide direct evidence of HT1-dependent CBC1 kinase activation (FIG. 1A). […] We identified in vitro phosphorylation sites in CBC1 using mass spectrometry by analyzing recombinant CBC1 protein in the presence or absence of HT1 (FIG. 1C). We found two HT1-dependent phosphorylation sites (Thr-256 and Ser-280) that lie within or near the activation-loop of CBC1.
FIG. 1. […] Histone was used as an artificial phosphorylation substrate of CBC1. • (C) Recombinant CBC1 proteins were incubated with or without HT1 and ATP, and CBC1 phosphorylation sites were identified by mass spectrometry. The red fonts indicate HT1-dependent phosphorylation sites. CBC1 autophosphorylation sites detected without HT1 addition are labeled in black fonts. […] CBB gels show loading controls.

A further series deals with MPK4 and HT1. Description: in vitro pull-down assay, His-HT1 with GST-MPK4. As to conditions: pull-down with or without 20 mM NaHCO3. Format: binding, Arabidopsis. Here is the method: We therefore investigated a possible binding between MPK4 and HT1 and the effect of HCO3^−.
FIG. 4. […] CO2 concentration changes were applied as indicated on top (p.p.m.). n=6 experiments, error bars show ±SEM. • (J) Model of plant stomatal CO2 sensor and signaling (see text).
FIG. 6. […] Precipitated proteins were washed with buffers supplemented with NaHCO3 at the indicated concentrations (0, 2 or 20 mM). See FIG. 4d for an independent experiment. To control for effects of Na^+, 20 mM NaCl (0 mM NaHCO3) for lanes 1 and 4 were included in the buffers; and 18 mM NaCl (2 mM NaHCO3) for lane 3 were included in buffer.

B1: MPK12 (recombinant Arabidopsis MAP kinase MPK12) (protein)
chain: MSGESSSGSTEHCIKVVPTHGGRYVQYNVYGQLFEVSRKYVPPIRPIGRGACGIVCAAVNSVTGEKVAIKKIGNAFDNIIDAKRTLREIKLLRHMDHENVITIKDIVRPPQRDIFNDVYIVYELMDTDLQRILRSNQTLTSDQCRFLVYQLLRGLKYVHSANILHRDLRPSNVLLNSKNELKIGDFGLARTTSDTDFMTEYVVTRWYRAPELLLNCSEYTAAIDIWSVGCILGEIMTGQPLFPGKDYVHQLRLITELVGSPDNSSLGFLRSDNARRYVRQLPRYPKQQFAARFPKMPTTAIDLLERMLVFDPNRRISVDEALGHAYLSPHHDVAKEPVCSTPFSFDFEHPSCTEEHIKELIYKESVKFNPDH
Regarding B1, in series [1], the “CBC1 and histone phosphorylation in vitro (HT1 + CBC1 + MPK12, 20 mM NaHCO3; FIG. 2A, n>6)” value is “when MPK4 or MPK12 were added to the reaction, we found that the addition of NaHCO3, but not NaCl, inhibited both CBC1 phosphorylation and histone phosphorylation in vitro”; the “HT1 kinase activity, in vitro phosphorylation assay with or without 20 mM NaHCO3 (FIG. 4B, n=3)” value is “HT1 kinase activity was inhibited in response to NaHCO3, only in the presence of MPK12”.

B2: MPK12-K70R: kinase inactive MPK12 isoform (protein)
chain: MSGESSSGSTEHCIKVVPTHGGRYVQYNVYGQLFEVSRKYVPPIRPIGRGACGIVCAAVNSVTGEKVAIRKIGNAFDNIIDAKRTLREIKLLRHMDHENVITIKDIVRPPQRDIFNDVYIVYELMDTDLQRILRSNQTLTSDQCRFLVYQLLRGLKYVHSANILHRDLRPSNVLLNSKNELKIGDFGLARTTSDTDFMTEYVVTRWYRAPELLLNCSEYTAAIDIWSVGCILGEIMTGQPLFPGKDYVHQLRLITELVGSPDNSSLGFLRSDNARRYVRQLPRYPKQQFAARFPKMPTTAIDLLERMLVFDPNRRISVDEALGHAYLSPHHDVAKEPVCSTPFSFDFEHPSCTEEHIKELIYKESVKFNPDH
Take B2: the “NaHCO3-mediated down-regulation of CBC1 phosphorylation/activity with the protein isoform in the reaction” value in series [2] is reported as “retained the ability to mediate CO2/bicarbonate-induced CBC1 inhibition”.

B3: His-BdMPK5 (D90N), chill1 variant isoform (protein)
chain: MRMEGGGAGPAAAAAAGGAHGLGEAQIKGTLTHGGRYVQYNVYGNLFEVSAKYVPPIRPVGRGACGIICAAINVQTREEVAIKKIGNAFNNQIDAKRTLREVKLLRHMNHENVISIKDIIRPPRRENFNDVYIVYELMDTDLHHLLRSNQPLTDDHCQYFLYQVLRGLKYVHSANVLHRDLRPSNLLLNAKCDLKIGDFGLARTTTETDFMMEYVVTRWYRAPELLLNCSEYTGAIDMWSVGCILGEIATREPLFPGKDYVHQLRLITELLGSPDDTSLGFLRSDNARRYVRSLPQYPKQQFRSRFPNMSSGAMDLLERMLVFDPNKRITVDEALCHPYLASLHEINDEPVCPAPFSFDFEQPSFTEEDIKELIWRESVKFNPEPIH
As to B3, the “CBC1 phosphorylation, in vitro phosphorylation assay with GST-CBC1, His-HT1 and His-BdMPK5 (D90N), with or without 20 mM NaHCO3 (n=2)” value in series [1] is given as “The BdMPK5-D90N variant protein abrogated the high CO2/bicarbonate-mediated downregulation of CBC1 phosphorylation”.

B4: His-BdMPK5 (WT), recombinant Brachypodium distachyon BdMPK5 (protein)
chain: MRMEGGGAGPAAAAAAGGAHGLGEAQIKGTLTHGGRYVQYNVYGNLFEVSAKYVPPIRPVGRGACGIICAAINVQTREEVAIKKIGNAFDNQIDAKRTLREVKLLRHMNHENVISIKDIIRPPRRENFNDVYIVYELMDTDLHHLLRSNQPLTDDHCQYFLYQVLRGLKYVHSANVLHRDLRPSNLLLNAKCDLKIGDFGLARTTTETDFMMEYVVTRWYRAPELLLNCSEYTGAIDMWSVGCILGEIATREPLFPGKDYVHQLRLITELLGSPDDTSLGFLRSDNARRYVRSLPQYPKQQFRSRFPNMSSGAMDLLERMLVFDPNKRITVDEALCHPYLASLHEINDEPVCPAPFSFDFEQPSFTEEDIKELIWRESVKFNPEPIH
For the molecule B4, the “CBC1 protein kinase activity, in vitro phosphorylation assay with GST-CBC1, His-HT1 and His-BdMPK5, with or without 20 mM NaHCO3 (n=2)” value in series [1] is “HT1 and CBC1 together with the BdMPK5 protein showed a high CO2/bicarbonate-induced down-regulation of the CBC1 protein kinase activity”.

B5: HT1-K113W: kinase inactive HT1 mutant (protein)
chain: MSGLCFNPFRLRWSLRSKLPLEPSLPNLPCNPSSSKTNRYAEAETMEKKRFDSMESWSMILESENVETWEASKGEREEWTADLSQLFIGNKFASGAHSRIYRGIYKQRAVAVWMVRIPTHKEETRAKLEQQFKSEVALLSRLFHPNIVQFIAACKKPPVYCIITEYMSQGNLRMYLNKKEPYSLSIETVLRLALDISRGMEYLHSQGVIHRDLKSNNLLLNDEMRVKVADFGTSCLETQCREAKGNMGTYRWMAPEMIKEKPYTRKVDVYSFGIVLWELTTALLPFQGMTPVQAAFAVAEKNERPPLPASCQPALAHLIKRCWSENPSKRPDFSNIVAVLEKYDECVKEGLPLTSHASLTKTKKAILDHLKGCVTSISSPFSSSSVPVNA
For the molecule B5, the “HT1-dependent activation/phosphorylation of CBC1” value in the series on CBC1 is reported as “did not activate CBC1”.

B6: HT1-G89R: recombinant HT1 protein kinase isoform with dominant G89R mutation (protein)
chain: MSGLCFNPFRLRWSLRSKLPLEPSLPNLPCNPSSSKTNRYAEAETMEKKRFDSMESWSMILESENVETWEASKGEREEWTADLSQLFIRNKFASGAHSRIYRGIYKQRAVAVKMVRIPTHKEETRAKLEQQFKSEVALLSRLFHPNIVQFIAACKKPPVYCIITEYMSQGNLRMYLNKKEPYSLSIETVLRLALDISRGMEYLHSQGVIHRDLKSNNLLLNDEMRVKVADFGTSCLETQCREAKGNMGTYRWMAPEMIKEKPYTRKVDVYSFGIVLWELTTALLPFQGMTPVQAAFAVAEKNERPPLPASCQPALAHLIKRCWSENPSKRPDFSNIVAVLEKYDECVKEGLPLTSHASLTKTKKAILDHLKGCVTSISSPFSSSSVPVNA
Turning to B6, the “NaHCO3-mediated down-regulation of CBC1 phosphorylation/activity with the protein isoform in the reaction” value in series [2] is on record as “no NaHCO3-mediated inhibition of CBC1 activity”. Moreover, in the series on MPK4 and HT1, the “HCO3- dependent binding of HT1 isoform with MPK4” value is given as “disrupts the HCO3^−-dependent binding with MPK4”.

B7: CBC1-D253A: kinase inactive CBC1 isoform (protein, UniProt Q9SSA4 1-411, looked up, variant D253A)
Serine/threonine-protein …: MKEKAESGGGVGYVRADQIDLKSLDEQLQRHLSKAWTMEKRKSLSDGEDNVNNTRHNQNNFGHRQLVFQRPLLGGGYSNNNNSSKNDIIRSTEVEKSRREWEIDPSKLIIKSVIARGTFGTVHRGIYDGQDVAVKLLDWGEEGHRSDAEIASLRAAFTQEVAVWHKLDHPNVTKFIGAAMGTSEMSIQTENGQMGMPSNVCCVVVEYCPGGALKSFLIKTRRRKLAFKVVIQLSLDLARGLSYLHSQKIVHRAVKTENMLLDKSRTLKIADFGVARLEASNPNDMTGETGTLGYMAPEVLNGSPYNRKCDVYSFGICLWEIYCCDMPYPDLSFSEVTSAVVRQNLRPEIPRCCPSSLANVMKRCWDANPEKRPEMEEVVAMLEAIDTSKGGGMIPPDQQQGCFCFRRHRGP
For the molecule B7, the “HT1-dependent activation/phosphorylation of CBC1” value in the series with CBC1 is on record as “reduced phosphorylation level compared to wild type CBC1”.
